Data published in patent US20240218057A1 (ROCKEFELLER UNIVERSITY, published 2024).

B1: C960 (antibody, V domains shown)
VH: QVQLVESGGGVVQPGRSLTLSCTASGFTFNRFAMFWVRQAPGKGLEWVAVISFDGSYEHYAESVKGRFAIFRDNPKNTLYLQMNSLRAEDTAVYYCAKSPINYCANGVCYPDSWGQGTLVTVSS
VL: NFMLTQPHSVSESPGKTVTISCTGSSGSIANNYVQWYQQRPGSAPTTVIFEDTQRPSGVPDRFSGSIDSSSNSASLNISGLKPEDEADYYCQSFDVNSRWVFGGGTKLTVL
notes: IgG; V domains only
B2: C968 (antibody, V domains shown)
VH: QVQLVESGGGVVQPGRSLRLSCAASGFTFRIYAMHWVRQAPGKGLEWVAIIWNDGNKKDYVDSVKGRFTISRDNSRNTVYLQMNSLRVDEDTAVYYCAREGVAVGGNGVDGFDMWGQGTMVTVSS
VL: DIQMTQSPSSLSSSVGDRVTITCRASQSIGIYLNWYQQKPGKVPNLLIYAASTLQTGAPSRFSGSGSGTDFILSISSLQPEDFATYYCQQTYSVPYTFGQGTKLEIK
notes: IgG; V domains only
B3: C989 (antibody, V domains shown)
VH: QVQLVQSGPEVKKPGSSVKVSCKASGGNFNSYTITWVRQAPGHGLEWMGRIIPTLGVANYALNFQDRITITADKSTSTAYMDLSSLRSEDTAVYYCARETGYSGFLAVAYMDVWGNGTTVTVSS
VL: QSVLTQPPSVSGAPGQRVTISCTGSSSNVGAGYDVHWYQQLPGTAPKLLIYRNNNRPSGVPDRFSGSKSGSSASLDITGLQAEDEADYYCQSYDSSLSDSVFGGGTKLTV
notes: IgG; V domains only
B4: C963 (antibody, V domains shown)
VH: QVQLVQSGAEVKKPGSSVRVSCKASGGTFSSFTITWVRQAPGQGLEWMGRIIPNLNIPNYAQRFQGRITITAEKSTSTAYLELSSLRSEDTAVYYCARGVGYSGSGSNWYFDLWGRGTLVTVSS
VL: QSVLTQPPSVSGAPGQRVTISCTGSSSNIGAGYDVHWYQQLPGTAPKLLISGHINRPSGVPDRFSGSTSGTSASLAITGLQAEDEADYYCQSYDSSLSDSVFGGGTKLTV
notes: IgG; V domains only
B5: C972 (antibody, V domains shown)
VH: EVQLVESGGGLVQPGGSLRLSCAASEFIVSRNYMSWVRQAPGKGLEWVSLIYPGGSTYYPDSVKGRFTISRDNSKNTLYLQMNSLRGEDTAVYYCARDLGDSRLDYWGQGALVTVSS
VL: DIQLTQSPSFLSASVGDRVTITCRASQGISSYLAWYQQDPGKAPKLLIYAASTLQSGVPSRFSGSGSGTEFTLTISSLQPEDFATYYCQQLDSYPPGYSFGQGTKLEIK
notes: IgG; V domains only
B6: C954 (antibody, V domains shown)
VH: QVQLVQSGAEVKKPGSSVKVSCKASGDTFTNYAFSWMRQAPGQGLEWMGRIIPILGIVKYSQKFQDRVRISADKSTSTAYMDLSSLRSEDTAMYYCARDSEFSTSWFSRGYHGMDVWGQGTTVTVSS
VL: DIVMTQSPLSLPVTPGEPASISCRSSQSLLHGDGYNYLDWYLQKPGQSPHLLIYLGSNRTSGVSDRFSGSGSGTDFTLKISRVEAEDVGVYYCMQALQTPPTFGGGTKVEIK
notes: IgG; V domains only
B7: C955 (antibody, V domains shown)
VH: QVQLQQWGAGLLKPSETLSLTCAVYGGTFSGYSWTWIRQPPGKGLDWIGEINHSGSTNYNPSLKSRVTISVDTSKNQFSLKLSSVTAADTAVYYCARAGFGFVITSRSGTDPLFDYWGQGTLVTVSS
VL: QSVLTQPPSVSGAPGQRVTISCTGSSSNIGAGYDVHWYQQLPGTAPKVLIYGNNNRPSGVPDRFSGSKSGTSASLAITGLQAEDEADYYCQSYDTSLSGSRVFGGGTKLTVL
notes: IgG; V domains only
B8: C992 (antibody, V domains shown)
VH: QVQLQESGPGLVKPSQTLSLTCTVSGGSISNGGYFWTWIRQHPVKGLEWIGYIYYSGSPHYNPSLKSRLSISLDTFKNQFSLNLSSVTAADTAVYYCARGDTFGRGYYFDFWGQGTLVTVSS
VL: SYELTQPPSVSVAPGQTARITCGGNNIGTNSMHWYQQKPGQAPVLVVFDDSDRPSGIPERFSGSNSGNTATLTISRVEAGDEADYHCQVWDRSSDRPWVFGGGTKLTVL
notes: IgG; V domains only
B9: C967 (antibody, V domains shown)
VH: QVQLVESGGGVVQPGRSLRLSCAASGFTFRIYAMHWVRQAPGKGLEWVAIIWNDGSKQYYADSMKGRFTISRDNSKNTLYLQMNSLRDEDTALYYCAREGVALAGNGVDGFDIWGQGTMVTVSS
VL: DIQMTQSPSSLSASVGDRVTITCRASQTISTFLNWYRQIPGKAPKLLIYAASSLQSGVPSRFSGSGSGTDFTLTISSLQPEDFATYYCQQTYSTPYTFGRGTKLEIK
notes: IgG; V domains only
B10: C958 (antibody, V domains shown)
VH: EVQLVQSGAEVKKPGDSLKISCKGSGYSFISHWIAWVRQKPGKGLEWMGIIHPGDSDTRYSPSIQGQVTISADRFITTAYLQWSSLQASDTAMYYCARRGSSWEIDHWGQGTLVTVSS
VL: QSVLTQPPSASGTPGQRVTISCSGSSSNIGSYTVNWYHQVPGTAPKVLIYGNTQRPSGVPDRFSGSKSGTSASLAISGLQSEDEGDYYCAAWDDSLDGWMFGGGTTLTVL
notes: IgG; V domains only
B11: C962 (antibody, V domains shown)
VH: EVQLVESGGGLVQPGGSLRLSCTASRLTVSSNYMNWVRQAPGKGLEWVSVIYAGGSTFYADSVKDRFTISRDNSMNTLYLQMNSLRVEDTAVYYCARLGGYRYGMDVWGQGTTVTV
VL: DIQMTQSPSSLSASVGDRVTITCQASQDISNYLNWYQQSPGKAPKLLIYDASKLETGVPSRFSGSGSGTDFTFTISSLQPEDIATYYCLQYDNLPYSFGQGTKLEI
notes: IgG; V domains only
B12: C953 (antibody, V domains shown)
VH: QVQLVQSGAEVKKPGSSVKVSCKASGGTFSSYAISWVRQAPGQGLEWMGRIIPILGIANYAQKFQGRVTITADKSTSTAYMELSSLRSEDTAVYYCARDSEYSSSWYSRGYYGMDVWGQGTTVTVSS
VL: not shown
notes: IgG; V domains only
B13: C964 (antibody, V domains shown)
VH: EVQLVESGGGLVQPGRSLRLSCAASGFTFDDYGMHWVRQAPGKGLEWVSGISWNSGSIAYAEFVKGRFTISRDNAKNSLYLQMNSLRTEDTALYYCAKAVPTSCYVFCALDIWGQGTMVTVSS
VL: DIQMTQSPSSLSASVGDRVTITCRASQGISNYLAWYQQSPGKVPKLLIYAASTLQSGVPSRFSGSGSGTDFTLTISSLQPEDVATYYCQKYNSGPALTFGGGTKVEIK
notes: IgG; V domains only
B14: C971 (antibody, V domains shown)
VH: EVQLVESGGGLVKPGGSLRLSCAASGFTFNNAWMTWVRQAPGKGLEWVGRIKSKTDGGTTDYGTPAKGRFTISRDDSKNTLYLQMKSLRTEDTAVYYCTTVDVQGIWELLENDAFDIWGQGTMVTVSS
VL: EIVLTQSPGTLSLSPGERATLSCRATQAISSTYLAWYQQKPGQAPRLLIYGAFSRAPGIPDRFSGSGSETDFTLTISRLEPEDFAVYYCQQSDRSPFTFGPGTKVDIK
notes: IgG; V domains only
B15: C969 (antibody, V domains shown)
VH: QVQLQESGPGLVKPSETLSLTCTVSGGSISSYYWSWIRQPPGKGLEWIGYIYYSGSTNYNPSLKSRVTISVDTSKNQFSLKLSSVTAADTAVYYCARLLSTEWLFNWFDPWGQGTLVTVSS
VL: not shown
notes: IgG; V domains only
B16: C966 (antibody, V domains shown)
VH: EVQLVESGGGLIQPGGSLRLSCAASGFTFSSYDMHWVRQVTGKGLEWVSAIGTAGDRYYLDSVKGRFTISRENAKNSLHLQMNNLRVGDTAVYYCARASGVLTTHFDSWGRGTLVTVSS
VL: DIQMTQSPSSLSASVGDRVTITCRASQSIGRHLSWHQQKLGKAPKLLIYSASSLQSGVPSRFSGSGSGTDFTLTISSLQPEDFATYYCQQSYETPPWTFGQGTKVEIK
notes: IgG; V domains only
B17: C965 (antibody, V domains shown)
VH: EVQLVESGGGLVKPGRSLRLSCSASGFTFGDYAMTWFRQAPGKGLQWVGFIRSKPFGGTTQYAASVKGRFTISRDDSNNVAYLQMNSLKTEDTGVYYCTRLRQVQGVPGYYFDQWGQGALVTVSS
VL: EIVMTQSPATLSVSPGERATLSCRASQSVSSNLAWYQQKPGQAPRLLIYGASIRATGIPARFSGSGSGTEFTLTISSLQSEDFVVYYCQEYDNWFAFGGGTKVEIK
notes: IgG; V domains only
B18: C975 (antibody, V domains shown)
VH: EVQLVESGGDLTQPGGSLRLSCAASGFTFSSYDMHWVRQATGKGLEWVSGIGTSGDTYYADSVKGRFTISRENAKNSLFLQMNNLRAGDTATYYCARTEYAWGSYRSYWYFDLWGRGTLVTVSS
VL: DIQMTQSPSSLSASVGDRVTITCRTSQTISTYLNWYQQKPGKAPKVLIYAASSLQSGVPSRFSGSGSGTDFTLTISSLQPEDFATYFCQQSYSAPPWTFGPGTKVEIK
notes: IgG; V domains only
B19: C987 (antibody, V domains shown)
VH: QVQLQESGPGLVKPSETLSLTCNVSGDIINKYYWSWIRQSPGKGLEWIGYIYYSGTTYYNPSLKSRVTMSVGTSKQQFSLRLTSVTAADTAVYYCARMLSTEWSFNWFDPWGPGTLVTVSS
VL: SYELTQPPSVSVSPGQAASITCSGDKLGDKFACWYQQKPGQSPVLVIYQNDKRPTGIPERFSGSNSGNTATLTISGTQAMDEADYFCQAWDSTSASVFGTGTKVTVL
notes: IgG; V domains only
B20: C956 (antibody, V domains shown)
VH: EVQLVESGGGLVQPGRSLRLSCTGSEFTFGDFSMSWFRQAPGKGLEWVGFIRRKADGGTTEYAASVRGRFTISRDDSKSIAYLVMNSLKSEDTAVYYCTRAWIPTPHDYWGQGVLVTVSS
VL: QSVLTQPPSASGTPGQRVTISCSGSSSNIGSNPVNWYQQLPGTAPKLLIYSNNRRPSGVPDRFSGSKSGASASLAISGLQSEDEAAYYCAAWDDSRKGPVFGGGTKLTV
notes: IgG; V domains only
B21: C957 (antibody, V domains shown)
VH: EVQLVESGGGLVQPGRSLRLSCTASGFTFADFSMTWFRQAPGKGLEWVGFIRREADGGTTEYAASVRGRFTISRDDSKGIAYLLMNSLKSEDTAMYYCSRAWIPTPHDYWGQGTLVTVSS
VL: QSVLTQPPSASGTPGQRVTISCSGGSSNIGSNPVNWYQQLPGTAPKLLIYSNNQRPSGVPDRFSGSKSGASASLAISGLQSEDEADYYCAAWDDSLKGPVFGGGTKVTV
notes: IgG; V domains only
B22: C959 (antibody, V domains shown)
VH: QVQLQESGPGLVKPSETLSLNCNVSGGSISNYYWSWIRQPPGKGLEWIGFISYSGSTDYNPSLKSRVIISIDTSKKHFSLNLSSVTAADTAVYFCARHYDILTALSWFDPWGQGTLVTVSS
VL: QSVLTQPPSVSAAPGQTVTISCSGSSSNIRNNFVSWYQQFPGTAPKLLIYDNNKRPSGIPDRFSGSKSGTSATLGITGLQTGDEADYYCGTWDSSPSACWVFGAGTKLTV
notes: IgG; V domains only
B23: C990 (antibody, V domains shown)
VH: EVQLVESGGGLVRPGGSLRLSCAASGFTVGSNFMSWVRQAPGKGLEWVSLIYSGGGTHYAESVKGRFTISRDKSKNTLYLQMNSLRAEDTAVYYCANQGYYYYMDVWGKGTTVTVS
VL: QSALTQPASVSGSPGQSITISCTGTSSDVGAYNYVSWHQHHPGKAPKLIIYDVSNRPSGVSNRFSGSKSGNTASLTISGLQAEDEADYYCTSYTNTTTPWVFGGGTKLTVL
notes: IgG; V domains only

Target: T1, SARS-COV-2 RBD (SARS-COV-2, UniProt P0DTC2 319-539)
T1 construct: also called WT RBD
Assay: ELISA, RBD coated

Binder | EC50 [ng/mL]
B1 | 1.62
B2 | 3.19
B3 | 4.12
B4 | 2.96
B5 | 2.18
B6 | 1.48
B7 | 2.44
B8 | 3.24
B9 | 3.58
B10 | 4.02
B11 | 1.74
B12 | 4.09
B13 | 2.79
B14 | 2.21
B15 | 3.49
B16 | 1.97
B17 | 1.69
B18 | 2.88
B19 | 3.11
B20 | 1.58
B21 | 1.93
B22 | 4.58
B23 | 1.92
